Tests used:
[1] = target: T1, SARS-CoV-2 M^pro (Severe acute respiratory syndrome coronavirus 2, UniProt P0DTD1); experiment: biochemical; details: read-out: Screening: Inhibition @ 50 µM
[2] = target: T1, SARS-CoV-2 M^pro; type: biochemical
[3] = test system: CC(C)C[C@H](NC(=O)[C@@H](NC(=O)[C@@H](NC(=O)[C@@H](NC(=O)c1ccccc1N)C(C)C)C(C)C)[C@@H](C)O)C(=O)N[C@@H](CCC(N)=O)C(=O)N[C@@H](CO)C(=O)NCC(=O)N[C@@H](CNc1ccc([N+](=O)[O-])cc1[N+](=O)[O-])C(=O)N[C@@H](CCCNC(=N)N)C(=O)O; experiment: purified protein, by the assay type; details: pH 7.4
[4] = test system: CC(C)C[C@H](NC(=O)[C@@H](NC(=O)[C@@H](NC(=O)[C@@H](NC(=O)c1ccccc1N)C(C)C)C(C)C)[C@@H](C)O)C(=O)N[C@@H](CCC(N)=O)C(=O)N[C@@H](CO)C(=O)NCC(=O)N[C@@H](Cc1ccc(O)c([N+](=O)[O-])c1)C(=O)N[C@@H](CCCNC(=N)N)C(=O)O; experiment: purified protein, by the assay type; details: pH 7.4
[5] = test system: CC(C)C[C@H](NC(=O)[C@@H](NC(=O)[C@H](C)NC(=O)[C@H](CO)NC(=O)c1ccccc1N)C(C)C)C(=O)N[C@@H](CCC(N)=O)C(=O)N[C@@H](CO)C(=O)NCC(=O)N[C@@H](Cc1ccc(O)c([N+](=O)[O-])c1)C(=O)N[C@@H](CCCNC(=N)N)C(=O)O; experiment: purified protein, by the assay type; details: pH 7.4

Row | Compound | inhibition at 50 µM [1] [%] | Hill slope [2] | Km [3] [µM] | Vmax [3] [µM/min] | kcat [3] [s⁻¹] | kcat/Km [3] [M⁻¹ s⁻¹] | Km [4] [µM] | Vmax [4] [µM/min] | kcat [4] [s⁻¹] | kcat/Km [4] [M⁻¹ s⁻¹] | Km [5] [µM] | Vmax [5] [µM/min] | kcat [5] [s⁻¹] | kcat/Km [5] [M⁻¹ s⁻¹]
1 | CC(C)(C)NC(=O)N[C@H](C(=O)N1C[C@H]2[C@@H]([C@H]1C(=O)NC(CC1CCC1)C(=O)C(N)=O)C2(C)C)C(C)(C)C (some centres unmarked) [Boceprevir] | 55.5 ± 4.7 | 0.85 ± 0.05 | – | – | – | – | – | – | – | – | – | – | – | –
2 | SARS-CoV-2 M^pro (Severe acute respiratory syndrome coronavirus 2) | – | – | 103.3 ± 18.5 | 0.426 | 0.0237 ± 0.0017 | 229 ± 44.2 | 197.9 ± 39.0 | 1.32 | 0.0733 ± 0.0077 | 370 ± 82.6 | 536.3 ± 156.6 | 2.39 | 0.133 ± 0.0279 | 248 ± 89.2
